{
  "source": "patent US20240254220A1",
  "about": "“COMBINED THERAPY USING ANTI-CD300C ANTIBODY” (CentricsBio, Inc., priority 2021, published 2024)",
  "molecules": {"B1": {"name": "CL7: anti-CD300c monoclonal antibody, VH3VL1 phage library, VH SEQ ID 327, VL SEQ ID 328 (antibody, V domains shown)", "VH": "EVQLLESGGGLVQPGGSLRLSCAASGFTFSRYAMSWVRQAPGKGLEWVSAISGSGGSTYYADSVKGRFTISRDNSKNTLYLQMNSLRAEDTAVYYCARSSQGIFDIWGQGTLVTVSS", "VL": "QSVLTQPPSASGTPGQRVTISCSGNNIGTRRVHWYQQLPDTAPKLLIYSKNNRPSGVPDRFSGSKSGTSASLAISGLRSEDEADYYCAAWDDSLSGPVFGGGTKLTVL", "modifications": "CL7 Heavy Chain Variable Region; CL7 Light Chain Variable Region"}},
  "key": {"[1]": {"test_system": "colon cancer cell line (CT26) tumor", "experiment": "Tumor immune cell FACS analysis in CT26 syngeneic mouse tumor model", "assay_type": "in vivo, BALB/c mice", "from_the_text": "In order to identify effects of the anti-CD300c monoclonal antibody CL7 on tumor-associated macrophages under in vivo conditions, a colon cancer cell line (CT26) at 2×10^5 cells was transplanted by subcutaneous injection into 8-week-old BALB/c mice to prepare syngeneic mouse tumor models. Animal breeding and experiments were all conducted in a specific pathogen free (SPF) facility. In addition, 12 days after transplantation of the colon cancer cell line, the mice with a tumor size of 50 mm^3 to 100 mm^3 were separately administered the anti-CD300c monoclonal antibody, and for a control group, the mice were injected with the same amount of phosphate buffered saline (PBS). The mice were intraperitoneally injected with 25 mg/kg of each substance twice a week for two weeks over a total of 4 times. On day 25 after the injection, the mice were sacrificed, and the tumor tissue was collected from each of six mice in the CL7 25 mg/kg administration group showing a highest antitumor effect compared with the control group. The tumor tissue was taken out and then incubated at 37° C. for 1 hour in a mixed solution of collagenase D (20 mg/mL) and DNase I (2 mg/mL). Thereafter, the resultant product was filtered through a 70 μm cell strainer, followed by the lysis of red blood cells, and then again filtered through a nylon mesh. Subsequently, the single cell suspension was blocked with CD16/32 antibody (from Invitrogen), and the cells were stained with a staining solution for checking cell viability (from Invitrogen), and antibodies (from Abcam) to the total macrophage marker F4/80 and the M1 macrophage marker iNOS. Then, the data were read with CytoFLEX flow cytometer and analyzed with FlowJo software.\nIn order to identify effects of the anti-CD300c monoclonal antibody CL7 on CD8+ T cells under in vivo conditions, syngeneic mouse tumor models were prepared as in Experimental Example 3.2 and administered the anti-CD300c monoclonal antibody at the same concentration.\n(§1) On day 25 after the injection, the mice were sacrificed, and the tumor tissue was collected from each of six mice in the CL7 25 mg/kg administration group showing a highest antitumor effect compared with the control group. The tumor tissue was taken out and then incubated at 37° C. for 1 hour in a mixed solution of collagenase D (20 mg/mL) and DNase I (2 mg/mL). Thereafter, the resultant product was filtered through a 70 μm cell strainer, followed by the lysis of red blood cells, and then again filtered through a nylon mesh. Subsequently, the single cell suspension was blocked with CD16/32 antibody (from Invitrogen), and the cells were stained with a staining solution for checking cell viability and a CD8+ antibody (from Abcam) and a CD4+ antibody (from Abcam). Thereafter, the data were read with CytoFLEX flow cytometer and analyzed with FlowJo software.\nas §1, with “In order to identify whether the anti-CD300c monoclonal antibody CL7 increases the number of CD8+ T cells in a tumor-specific manner, syngeneic mouse tumor models were prepared as in Experimental Example 3.2 and administered the anti-CD300c monoclonal antibody at the same concentration. On” for “On”, “AH1 tetramer” for “a CD8+ antibody (from Abcam) and a CD4+”, “software. […]” for “software.”"}, "[2]": {"test_system": "colon cancer cell line (CT26) tumor", "experiment": "In vivo cancer growth inhibition, CT26 model, CL7 and anti-PD-1", "parameters": "species or system BALB/c mice", "conditions": "CL7 10 mg/kg, anti-PD-1 10 mg/kg i.p. D12, D15, D19, D22; 25 days", "method": "In order to identify anticancer effects of the anti-CD300c monoclonal antibody CL7 under in vivo conditions, a colon cancer cell line (CT26) at 2×10^5 cells was transplanted by subcutaneous injection into 8-week-old BALB/c mice to prepare syngeneic mouse tumor models. Animal breeding and experiments were all conducted in a SPF facility. On day 12 (D12) after transplantation of the colon cancer cell line, the mice with a tumor size of 50 mm^3 to 100 mm^3 were administered the anti-CD300c monoclonal antibody and an anti-PD-1 antibody purchased from BioXcell alone or in combination, and for a control group, the mice were administered the same amount of phosphate buffered saline (PBS). Specifically, the mice were intraperitoneally injected with the respective antibodies (CL7: 10 mg/kg; and anti-PD-1 antibody: 10 mg/kg) alone or in combination, twice a week for two weeks (a total of 4 times on D12, D15, D19, and D22). The tumor volume was measured for 25 days."}, "[3]": {"test_system": "mouse macrophages (Raw264.7)", "experiment": "TNF-α production in mouse macrophages (M1 differentiation)", "assay_type": "cell-based", "conditions": "Raw264.7, 10 μg/mL", "method": "In order to identify whether anti-CD300c monoclonal antibodies can promote the differentiation from mouse macrophages into M1 macrophages, mouse macrophages (Raw264.7) were dispensed into a 96-well plate at a concentration of 1×10^4 cells/well, and then treated with 10 μg/mL CL7, followed by incubation. Thereafter, the production amount of TNF-α was identified by an ELISA kit (Human TNF-α Quantikine kit, R&D Systems)."}, "[4]": {"test_system": "MDA-MB-231 (human breast cancer cell line)", "experiment": "MDA-MB-231 cancer cell growth inhibition (CCK-8)", "assay_type": "cell-based", "conditions": "10 μg/mL each, 5 days", "from_the_text": "In order to identify cancer cell growth inhibitory effects by combined administration of the anti-CD300c monoclonal antibody CL7 and an immunotherapeutic agent, the cancer cell growth inhibitory effects were compared using A549 (human lung cancer cell line) and MDA-MB-231 (human breast cancer cell line). Specifically, the cells were dispensed into a 96-well plate at 2×10^4 cells (A549) or 3×10^4 cells (MDA-MB-231) under 0% fetal bovine serum (FBS) conditions, and at 6×10^3 cells (A549) or 1×10^4 cells (MDA-MB-231) under 0.1% fetal bovine serum conditions. Subsequently, the cells were treated with the anti-CD300c monoclonal antibody and Imfinzi at 10 μg/mL alone or in combination, followed by incubation for 5 days. For a control group, the cells were treated with the same amount of phosphate buffer solution (PBS). Then, the cells were treated with CCK-8 (DOJINDO), and the absorbance was measured at OD 450 nm. The results are shown in FIG. 33 (A549) and FIG. 34 (MDA-MB-231)."}, "[5]": {"conditions": "Experimental Example 3.7, 25 mg/kg i.p., day 25"}},
  "data": [
    {"molecule": "B1", "values": [
      {"measurement": "expression level of M1 type tumor-associated macrophages in cancer tissue", "setting": "[1]; 25 mg/kg i.p. twice a week, 4 times, day 25, vs PBS", "value": "increased"},
      {"measurement": "CD8+ T cells compared with Treg T cells", "setting": "[1]; 25 mg/kg i.p., day 25", "value": "increased"},
      {"measurement": "expression of AH1 tetramer in CD8+ T cells", "setting": "[1]; 25 mg/kg i.p., day 25", "value": "increased"},
      {"measurement": "number of T cells in tumor", "setting": "[1]; 25 mg/kg i.p., day 25, CD8+/CD4+ staining", "value": "increased"},
      {"measurement": "activated CD8+ T cells", "setting": "[1]; [5]", "value": "significantly increased"},
      {"measurement": "regulatory T cells", "setting": "[1]; [5]", "value": "inhibited"},
      {"measurement": "tumor-associated macrophage phenotype", "setting": "[1]; [5]", "value": "repolarized tumor-associated macrophages towards M1 phenotype"},
      {"measurement": "cancer growth (tumor volume)", "setting": "[2]", "value": "inhibited"},
      {"measurement": "production level of TNF-α", "setting": "[3]", "value": "increased"},
      {"measurement": "cancer cell growth inhibitory effect compared with control group", "setting": "[4]; MDA-MB-231, 0.1% FBS (second statement)", "value": 19, "unit": "%"},
      {"measurement": "cancer cell growth inhibitory effect compared with control group", "setting": "[4]; MDA-MB-231, 0.1% FBS as printed (first statement)", "value": 19, "unit": "%"}
    ]}
  ]
}
